From patent publication US20160251438A1 (LUDWIG INSTITUTE FOR CANCER RESEARCH, published 2016)

Key:
[1] = molecular target: GARP / TGF-β1 Y336A complex (human, UniProt Q14392 20-662; P01137 30-390); assay: FACS titration on transfected 293T; EC50 mutant / EC50 WT [cont.) B]
Experimental: Intensities of staining at each concentration of antibody relative to the maximal intensity measured at 5 μg/ml were determined as follows:
The relative staining intensities were plotted according to the concentration of antibody used for staining, and a non-linear regression analysis was used with the Prism software to determine an EC₅₀ value for binding of the antibody to the WT and to each of the various mutant GARP/TGF-β1 complexes. If the ratio between the EC₅₀ measured on the mutant and the EC₅₀ measured on the WT was >2, the mutation was considered to induce a reduced avidity for binding by the antibody. The ratio of EC₅₀ (mutant vs WT) for MHG-8 and LHG-10 are indicated below each mutation on FIG. 19, parts A and B, respectively.

[2] = molecular target: GARP R163E / TGF-β1 complex (human, UniProt Q14392 20-662; P01137 30-390); assay: flow cytometry on transfected 293T cells, 5 ug/ml; grade of Loss of binding read by footnote 2
Text: (§1) Resolution of the crystal structure of MHG-8 Fab/GARP/TGF-β1 complexes and analysis with the CONTACT software allowed the identification of 22 amino-acids in GARP, 8 amino-acids in LAP and 6 amino-acids in mature TGF-β1 that are located less than 5 Å away from an amino-acid of the light or heavy chain of the MHG-8 Fab (Tables 7a, b and c, and Table 8). Directed mutagenesis was used to construct plasmids encoding HA-tagged forms of GARP or TGF-β1 that are mutated at one, two, or three of these 36 positions (all mutations constructed are indicated in Table 8). […] Antibodies were used at a saturating concentration of 5 μg/ml for labeling. Binding of each antibody to a given mutant GARP/TGF-β1 complex was compared to their binding to wild type (WT) complexes, by determining an I_{m/wt} value (i.e. intensity of binding to mutant by comparison to WT). This value was calculated as follows: I_{m/wt} of antibody X=[Geom on mutant−Geom on control]/[Geom on WT−Geom on control]
(§2) The level of residual binding of anti-GARP or anti-LAP antibodies to each mutant was then calculated by comparison to WT, taking into account the expression levels of mutant and WT forms as measured with anti-HA antibodies. Residual binding was calculated as follows: Residual binding by an anti-GARP or anti-LAP antibody=[I_{m/wt} with anti-GARP or anti-LAP antibody]/[I_{m/wt} with anti-HA antibody]

[3] = molecular target: GARP / TGF-β1 A341Y complex (human, UniProt Q14392 20-662; P01137 30-390); assay: as above
Text: as §1, §2

[4] = molecular target: GARP / TGF-β1 K338E complex (human, UniProt Q14392 20-662; P01137 30-390); assay: as above
Text: as §1, §2

[5] = molecular target: GARP R166M/H167E / TGF-β1 complex (human, UniProt Q14392 20-662; P01137 30-390); assay: as above
Sequence of GARP R166M/H167E / TGF-β1 complex (Q14392 20-662 R166M/H167E limits assumed, chain 1 of 2): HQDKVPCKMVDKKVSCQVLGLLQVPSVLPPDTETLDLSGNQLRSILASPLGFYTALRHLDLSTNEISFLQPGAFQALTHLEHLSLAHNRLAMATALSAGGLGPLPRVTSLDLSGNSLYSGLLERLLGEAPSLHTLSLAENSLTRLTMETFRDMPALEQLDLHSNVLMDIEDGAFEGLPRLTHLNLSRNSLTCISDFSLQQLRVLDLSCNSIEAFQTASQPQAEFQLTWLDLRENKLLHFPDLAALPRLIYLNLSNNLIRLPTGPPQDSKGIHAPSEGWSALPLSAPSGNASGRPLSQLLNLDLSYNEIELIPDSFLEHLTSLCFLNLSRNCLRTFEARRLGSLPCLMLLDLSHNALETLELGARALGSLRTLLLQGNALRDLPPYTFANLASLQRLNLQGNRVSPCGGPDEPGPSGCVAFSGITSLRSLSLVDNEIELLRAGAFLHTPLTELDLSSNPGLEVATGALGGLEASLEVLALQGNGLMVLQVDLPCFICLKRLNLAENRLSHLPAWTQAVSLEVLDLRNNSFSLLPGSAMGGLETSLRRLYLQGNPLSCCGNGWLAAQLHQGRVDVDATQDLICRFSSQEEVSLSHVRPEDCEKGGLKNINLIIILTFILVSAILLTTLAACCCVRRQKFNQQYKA
Sequence of GARP R166M/H167E / TGF-β1 complex (P01137 30-390 limits assumed, stated change not applied, chain 2 of 2): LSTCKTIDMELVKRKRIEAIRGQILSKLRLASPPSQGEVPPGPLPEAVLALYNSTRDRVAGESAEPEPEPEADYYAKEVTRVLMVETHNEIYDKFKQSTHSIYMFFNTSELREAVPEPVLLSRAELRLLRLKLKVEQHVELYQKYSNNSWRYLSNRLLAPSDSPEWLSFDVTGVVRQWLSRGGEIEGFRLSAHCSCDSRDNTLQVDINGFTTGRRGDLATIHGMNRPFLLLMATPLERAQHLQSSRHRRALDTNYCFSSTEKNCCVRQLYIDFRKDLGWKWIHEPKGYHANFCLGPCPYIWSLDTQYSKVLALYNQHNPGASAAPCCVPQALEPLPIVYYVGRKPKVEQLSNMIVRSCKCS
Text: as §1, §2

[6] = molecular target: GARP / TGF-β1 L271R/Q272Y/S273W complex (human, UniProt Q14392 20-662; P01137 30-390); assay: as above
Text: as §1, §2

[7] = molecular target: GARP / TGF-β1 H270Y complex (human, UniProt Q14392 20-662; P01137 30-390); assay: as above
Text: as §1, §2

[8] = molecular target: GARP / TGF-β1 Y284A complex (human, UniProt Q14392 20-662; P01137 30-390); assay: as above
Text: as §1, §2

[9] = molecular target: GARP E189A / TGF-β1 complex (human, UniProt Q14392 20-662; P01137 30-390); assay: as above
Text: as §1, §2

[10] = molecular target: GARP T165A / TGF-β1 complex (human, UniProt Q14392 20-662; P01137 30-390); assay: as above
Sequence of GARP T165A / TGF-β1 complex (Q14392 20-662 T165A limits assumed, chain 1 of 2): as the sequence (Q14392 20-662 R166M/H167E limits assumed, chain 1 of 2) above, with T146A, M147R, E148H counted along it
Sequence of GARP T165A / TGF-β1 complex (P01137 30-390 limits assumed, chain 2 of 2): as the sequence (P01137 30-390 limits assumed, stated change not applied, chain 2 of 2) above
Text: as §1, §2

[11] = molecular target: GARP R163A/T165A / TGF-β1 complex (human, UniProt Q14392 20-662; P01137 30-390); assay: as above
Sequence of GARP R163A/T165A / TGF-β1 complex (Q14392 20-662 R163A/T165A limits assumed, chain 1 of 2): as the sequence (Q14392 20-662 R166M/H167E limits assumed, chain 1 of 2) above, with R144A, T146A, M147R, E148H counted along it
Sequence of GARP R163A/T165A / TGF-β1 complex (P01137 30-390 limits assumed, chain 2 of 2): as the sequence (P01137 30-390 limits assumed, stated change not applied, chain 2 of 2) above
Text: as §1, §2

[12] = molecular target: GARP / TGF-β1 Q345A complex (human, UniProt Q14392 20-662; P01137 30-390); assay: as above
Text: as §1, §2

[13] = molecular target: GARP / TGF-β1 Q269Y complex (human, UniProt Q14392 20-662; P01137 30-390); assay: as above
Text: as §1, §2

[14] = molecular target: GARP T162D / TGF-β1 complex (human, UniProt Q14392 20-662; P01137 30-390); assay: as above
Sequence of GARP T162D / TGF-β1 complex (Q14392 20-662 T162D limits assumed, chain 1 of 2): as the sequence (Q14392 20-662 R166M/H167E limits assumed, chain 1 of 2) above, with T143D, M147R, E148H counted along it
Sequence of GARP T162D / TGF-β1 complex (P01137 30-390 limits assumed, chain 2 of 2): as the sequence (P01137 30-390 limits assumed, stated change not applied, chain 2 of 2) above
Text: as §1, §2

[15] = molecular target: GARP / TGF-β1 S337A complex (human, UniProt Q14392 20-662; P01137 30-390); assay: as above
Text: as §1, §2

[16] = molecular target: GARP S116N / TGF-β1 complex (human, UniProt Q14392 20-662; P01137 30-390); assay: as above
Text: as §1, §2

B1: LHG-10 (antibody, human IgG1, V domains shown)
VH: EVQLVQPGAELRNSGASVKVSCKASGYRFTSYYIDWVRQAPGQGLEWMGRIDPEDGGTKYAQKFQGRVTFTADTSTSTAYVELSSLRSEDTAVYYCARNEWETVVVGDLMYEYEYWGQGTQVTVSS
VL: DIQMTQSPTSLSASLGDRVTITCQASQSISSYLAWYQQKPGQAPKLLIYGASRLQTGVPSRFSGSGSGTSFTLTISGLEAEDAGTYYCQQYDSLPVTFGQGTKVELK
notes: llama-derived V regions in a full human IgG1
≥ 50%: residual binding on mutant by comparison to WT [3] | residual binding on mutant by comparison to WT [5] | residual binding on mutant by comparison to WT [6] | residual binding on mutant by comparison to WT [7] | residual binding on mutant by comparison to WT [8] | residual binding on mutant by comparison to WT [9] | residual binding on mutant by comparison to WT [10] | residual binding on mutant by comparison to WT [11] | residual binding on mutant by comparison to WT [12] | residual binding on mutant by comparison to WT [13] | residual binding on mutant by comparison to WT [15] | residual binding on mutant by comparison to WT [16]
< 50%: residual binding on mutant by comparison to WT [2] | residual binding on mutant by comparison to WT [4] | residual binding on mutant by comparison to WT [14]
1.9: Ratio of EC50 (mutant / wt) [1]
